Patent US20160051704A1, “MOLECULAR IMAGING PROBES FOR LUNG CANCER INTRAOPERATIVE GUIDANCE” (H. Lee Moffitt Cancer Center and Research Institute, Inc., priority 2013, published 2016)

Target: T1, delta opioid receptor (δOR) on HCT-116/δOR cells, P41143
T1 chain: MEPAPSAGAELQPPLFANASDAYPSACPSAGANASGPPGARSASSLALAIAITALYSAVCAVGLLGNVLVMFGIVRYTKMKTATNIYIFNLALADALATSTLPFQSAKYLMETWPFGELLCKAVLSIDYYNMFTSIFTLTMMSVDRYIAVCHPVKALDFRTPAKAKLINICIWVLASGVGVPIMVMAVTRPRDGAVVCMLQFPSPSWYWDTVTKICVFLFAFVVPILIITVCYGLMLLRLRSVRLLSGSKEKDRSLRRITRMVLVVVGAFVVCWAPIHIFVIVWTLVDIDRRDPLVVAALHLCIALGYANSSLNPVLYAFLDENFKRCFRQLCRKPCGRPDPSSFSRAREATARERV
Assay: in cyto time-resolved fluorescence saturation binding on HCT-116/δOR cells

Q: Which Bmax does the source give for YCGFC (modifications not checked) [Europium (Eu)-diethylenetriaminepentaacetic acid (DTPA)[D-Pen2, L-Cys5] enkephalin (DPLCE)] here?
A: The Bmax was 3.01e+06 AFU.
